The target of experiment [1] is human uPAR displayed on the surface of MDA-MB-231 cells (human) (UniProt Q03405). The experiment in a line: cell-based or functional assay.
For experiment [2] the target is unchanged. The experiment can be described thus: flow cytometry (FACS) on MDA-MB-231 cells.
For experiment [3], the target named is human uPAR (recombinant protein used in ELISA and BLI) (human) (UniProt Q03405). The experiment in a line: ELISA, plate-coated human uPAR.
human uPAR (recombinant protein used in ELISA and BLI) (human), sequence (Q03405 23-305 limits assumed): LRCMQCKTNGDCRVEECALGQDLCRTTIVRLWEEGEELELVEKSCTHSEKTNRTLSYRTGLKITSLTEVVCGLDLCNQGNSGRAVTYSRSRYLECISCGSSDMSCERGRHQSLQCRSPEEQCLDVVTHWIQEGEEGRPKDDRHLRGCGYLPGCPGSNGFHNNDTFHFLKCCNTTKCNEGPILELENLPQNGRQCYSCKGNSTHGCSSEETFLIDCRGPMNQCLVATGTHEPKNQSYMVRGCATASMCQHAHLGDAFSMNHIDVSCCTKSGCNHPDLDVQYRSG

human uPAR displayed on the surface of MDA-MB-231 cells (human), sequence (Q03405 23-305): as the sequence (Q03405 23-305 limits assumed) above

B1: 3C6 (antibody, from another filing, V domains shown)
VH: QVQLQQWGAGLLKPSETLSLTCAVYGGSFSGYYWSWIRQPPGKGLEWIGEINHSGSTNYNPSLKSRVTISVDTSKNQFSLKLSSVTAADTAVYYCARGRRFGDFDYWGQGTLVTVSS
VL: QPVLTQPPSVSVAPGKTARITCGGNNIGSKSVHWYQQKPGQAPVLVVYDDSDRPPGIPERFSGSNSGNTATLTISRVEAGDEADYYCQVWDSSSDHSPFGTGTKVTVLG
In experiment [1], B1 registered an ADC Cytotoxicity Max % of 1.42% and an Adhesion blocking EC50 of 810 nM. In experiment [2], this molecule displayed a Cellular recognition Max % of 971% and an EC50 of 292 nM. For the same molecule, in experiment [3], the EC50 was determined as 0.28 nM.

B2: 2G10 (antibody, from another filing, V domains shown)
VH: QVQLQQSGPGLVKPSQTLSLTCAISGDSVSSNSAAWNWIRQSPSRGLEWLGRTYYRSKWYNDYAVSVKSRIIINPDTSKNQFSLQLNSVTPEDTAVYYCARDPGGPLDDSFDIWGQGTMVTVSS
VL: DVVMTQSPLSLPVTPGEPASISCRSSQSLLRSNGYNYLDWYLQKPGQSPQLLIYLGSIRASGVPDRFSGSGSGTDFTLRISRVEAEDVGVYYCMQALQTPFTFGQGTKLEIKR
On to B2, for which, in experiment [1], the ADC Cytotoxicity Max % was 4.9%, the ADCC NK-92 EC50 worked out at 22.5 nM, the ADCC NK-92 Max % was 33.9% and the ADCC PBMCs EC50 is 8.65 nM. In experiment [1], this molecule displayed an ADCC PBMCs Max % of 65.5% and an Adhesion blocking EC50 of 3500 nM. Also, in experiment [2], the Cellular recognition Max % came out at 2200% and the EC50 was 16.6 nM. Further, the EC50 in experiment [3] turned out to be 0.26 nM.

The record behind these values is patent US20260116983A1.
